In patent US20150266977A1 (AbbVie / Abbott, published 2015) one finds Kd, koff and kon data, which are given here for nine molecules.

Common to all, as to assay: SPR
For orientation: SPR reads the build-up and loss of mass on a sensor chip optically.

The target in experiment [1] is T1, recombinant human sclerostin (human, UniProt Q9BQB4 24-213).
T1 construct: biotinylated in the ELISAs; also called hu sclerostin; hu scl
T1 sequence: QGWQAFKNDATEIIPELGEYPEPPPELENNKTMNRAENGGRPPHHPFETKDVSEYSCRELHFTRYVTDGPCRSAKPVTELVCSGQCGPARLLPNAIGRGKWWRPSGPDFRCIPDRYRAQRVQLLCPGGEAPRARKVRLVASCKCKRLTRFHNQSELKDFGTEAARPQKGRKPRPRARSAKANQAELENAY
As for the experimental part:
(§1) The binding of antibodies or anti-sclerostin-TNF DVD to purified recombinant human, cynomolgus monkey (cyno), rat and mouse sclerostin and TNFα was determined by surface plasmon resonance-based measurements with a Biacore T100 or T200 instruments (GE Healthcare Life Sciences, Piscataway, N.J., USA) using running HBS-EP+ (10 mM HEPES [pH 7.4], 150 mM NaCl, 3 mM EDTA, and 0.005% surfactant P20) containing additional 150 mM NaCl, and/or 10 mg/ml carboxymethyl dextran, 0.1 mg/ml BSA at 25° C. All chemicals were obtained from GE Healthcare Life Sciences, Piscataway, N.J., USA or otherwise from a different source as described in the text. Approximately 10,000 RU (or 3000 RU when CM3 chip was used) of goat anti-mouse or anti-human IgG (Fcγ) fragment specific polyclonal antibody (Pierce Biotechnology Inc, Rockford, Ill.) diluted in 10 mM sodium acetate (pH 4.5) was directly immobilized across a CM5 (or CM3) research grade biosensor chip using a standard amine coupling kit according to manufacturer's instructions and procedures at 15 μg/ml. Unreacted moieties on the biosensor surface were blocked with ethanolamine. Modified carboxymethyl dextran surface in flowcells 2, 3 and 4 were used as a reaction surface. Modified carboxymethyl dextran in flow cell 1 was used as the reference surface. Biaevaluation T100 software version 2.0.2, GE Healthcare Life Sciences was used to simultaneously fit association and dissociation phases of all injections (using 1:1 fit analysis with local Rmax). Purified antibodies were diluted in running buffer for capture across goat anti-mouse or anti-human IgG specific reaction surfaces. Antibodies to be captured as a ligand (1 μg/ml) were injected over reaction matrices at a flow rate of 10 μl/minute. The association and dissociation rate constants, kon (unit M-1 s-1) and koff (unit s-1) were determined under a continuous flow rate of 50 μl/minute. […] At the end of each cycle the surfaces were regenerated with 10 s injection of 50 mM NaOH or/and by 10 s injection of 10 mM Glycine pH1.5 at a flow rate of 100 μl/min.

Experiment [2] addresses T2, recombinant cynomolgus monkey sclerostin (cynomolgus monkey).
T2 construct: also called cyno sclerostin; Cyno sclerostin
As for the experimental part: as §1

Experiment [3] addresses T3, recombinant rat sclerostin (rat, UniProt Q99P67 24-213, limits assumed).
T3 sequence (looked up): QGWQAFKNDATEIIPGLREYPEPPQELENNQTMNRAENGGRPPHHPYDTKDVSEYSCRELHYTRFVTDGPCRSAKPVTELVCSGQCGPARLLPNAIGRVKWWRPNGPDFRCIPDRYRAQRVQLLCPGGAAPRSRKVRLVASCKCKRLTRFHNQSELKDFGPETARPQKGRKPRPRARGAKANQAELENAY
As for the experimental part: as §1

Experiment [4] concerns the target T4, recombinant mouse sclerostin (mouse, UniProt Q99P68 24-211).
T4 construct: also called ms sclerostin; murine sclerostin
T4 sequence (looked up): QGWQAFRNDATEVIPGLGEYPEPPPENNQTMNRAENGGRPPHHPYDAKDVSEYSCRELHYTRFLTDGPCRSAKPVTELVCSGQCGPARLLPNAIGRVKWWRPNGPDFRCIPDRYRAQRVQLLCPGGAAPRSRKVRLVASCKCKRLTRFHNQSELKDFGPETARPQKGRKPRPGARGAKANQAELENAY
As for the experimental part:
as §1

B1: MAK195-21-GS-AE10-6 AM3 (bispecific antibody, human IgG1, lambda, L234A L235A)
heavy: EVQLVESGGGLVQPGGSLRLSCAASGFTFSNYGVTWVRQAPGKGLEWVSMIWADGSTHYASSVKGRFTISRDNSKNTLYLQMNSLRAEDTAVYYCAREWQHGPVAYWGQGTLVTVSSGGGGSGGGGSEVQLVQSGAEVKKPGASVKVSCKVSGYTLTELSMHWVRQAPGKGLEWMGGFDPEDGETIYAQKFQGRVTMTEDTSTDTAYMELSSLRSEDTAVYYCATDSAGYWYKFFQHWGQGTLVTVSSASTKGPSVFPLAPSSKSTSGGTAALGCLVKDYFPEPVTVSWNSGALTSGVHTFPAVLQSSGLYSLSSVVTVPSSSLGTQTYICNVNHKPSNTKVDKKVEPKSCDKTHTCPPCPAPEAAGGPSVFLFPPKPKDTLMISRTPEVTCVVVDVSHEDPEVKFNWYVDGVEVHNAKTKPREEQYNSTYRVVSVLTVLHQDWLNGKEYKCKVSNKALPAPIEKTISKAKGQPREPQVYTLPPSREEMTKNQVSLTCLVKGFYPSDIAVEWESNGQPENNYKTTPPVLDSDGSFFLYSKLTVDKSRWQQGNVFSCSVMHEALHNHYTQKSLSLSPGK
light: DIQMTQSPSSLSASVGDRVTITCRASQLVSSAVAWYQQKPGKAPKLLIYWASARHTGVPSRFSGSGSGTDFTLTISSLQPEDFATYYCQQHYKTPFTFGQGTKLEIKGGSGGGGSGQAVVTQEPSLTVSPGGTVTLTCGSSTGAVTIDHYPYWFQQKPGQAPRTLISDTDDKHSWTPARFSGSLLGGKAALTLSGAQPEDEAEYYCLLDYGGTFVFGGGTKLTVLGQPKAAPSVTLFPPSSEELQANKATLVCLISDFYPGAVTVAWKADSSPVKAGVETTTPSKQSNNKYAASSYLSLTPEQWKSHRSYSCQVTHEGSTVEKTVAPTECS
notes: DVD-Ig: outer MAK195-21, inner AE10-6 AM3; heavy chain row is printed MAK195-1-GS-AE10-6 AM3; also called MAK195-1-GS-AE10-6 AM3
One may read the Kd as the free concentration of one partner at which half of the binding sites on the other are occupied at equilibrium, for simple one-to-one binding. Usually koff stands for a measure of how fast the partners let go of each other. Usually kon stands for the rate constant with which the complex forms. Consider B1, for which, in experiment [1], the Kd came out at 8.2 pM, the koff was found to be 1.7e-05 s⁻¹ and the kon turned out to be 2.1e+06 M⁻¹ s⁻¹.

B2: MAK195-21-GS-AE10-6 AM7 (bispecific antibody, human IgG1, lambda, L234A L235A)
heavy: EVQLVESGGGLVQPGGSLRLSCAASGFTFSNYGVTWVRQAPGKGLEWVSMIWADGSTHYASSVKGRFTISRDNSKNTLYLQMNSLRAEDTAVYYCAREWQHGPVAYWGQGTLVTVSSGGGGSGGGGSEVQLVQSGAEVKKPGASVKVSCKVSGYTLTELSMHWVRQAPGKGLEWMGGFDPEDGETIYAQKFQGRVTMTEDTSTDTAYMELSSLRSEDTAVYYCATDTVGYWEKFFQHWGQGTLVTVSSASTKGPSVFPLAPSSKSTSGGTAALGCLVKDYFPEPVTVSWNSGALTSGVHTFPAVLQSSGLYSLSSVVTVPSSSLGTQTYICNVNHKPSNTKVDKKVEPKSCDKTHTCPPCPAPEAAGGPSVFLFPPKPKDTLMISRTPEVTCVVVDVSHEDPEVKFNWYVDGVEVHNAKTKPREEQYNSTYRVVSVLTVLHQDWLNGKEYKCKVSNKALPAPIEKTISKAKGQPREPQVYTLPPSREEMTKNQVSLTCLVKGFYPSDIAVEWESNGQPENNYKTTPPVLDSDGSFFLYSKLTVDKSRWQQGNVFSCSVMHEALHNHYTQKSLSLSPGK
light: DIQMTQSPSSLSASVGDRVTITCRASQLVSSAVAWYQQKPGKAPKLLIYWASARHTGVPSRFSGSGSGTDFTLTISSLQPEDFATYYCQQHYKTPFTFGQGTKLEIKGGSGGGGSGQAVVTQEPSLTVSPGGTVTLTCGSSTGTVTIDHYPYWFQQKPGQAPRTLISDTDDKHSWTPARFSGSLLGGKAALTLSGAQPEDEAEYYCLLDYGGRFVFGGGTKLTVLGQPKAAPSVTLFPPSSEELQANKATLVCLISDFYPGAVTVAWKADSSPVKAGVETTTPSKQSNNKYAASSYLSLTPEQWKSHRSYSCQVTHEGSTVEKTVAPTECS
notes: DVD-Ig: outer MAK195-21, inner AE10-6 AM7
Regarding B2, in experiment [1], the Kd came out at 10 pM, the koff was 2e-05 s⁻¹ and the kon is 2e+06 M⁻¹ s⁻¹.

B3: MAK195-21-GS-AE10-6 AM8 (bispecific antibody, human IgG1, lambda, L234A L235A)
heavy: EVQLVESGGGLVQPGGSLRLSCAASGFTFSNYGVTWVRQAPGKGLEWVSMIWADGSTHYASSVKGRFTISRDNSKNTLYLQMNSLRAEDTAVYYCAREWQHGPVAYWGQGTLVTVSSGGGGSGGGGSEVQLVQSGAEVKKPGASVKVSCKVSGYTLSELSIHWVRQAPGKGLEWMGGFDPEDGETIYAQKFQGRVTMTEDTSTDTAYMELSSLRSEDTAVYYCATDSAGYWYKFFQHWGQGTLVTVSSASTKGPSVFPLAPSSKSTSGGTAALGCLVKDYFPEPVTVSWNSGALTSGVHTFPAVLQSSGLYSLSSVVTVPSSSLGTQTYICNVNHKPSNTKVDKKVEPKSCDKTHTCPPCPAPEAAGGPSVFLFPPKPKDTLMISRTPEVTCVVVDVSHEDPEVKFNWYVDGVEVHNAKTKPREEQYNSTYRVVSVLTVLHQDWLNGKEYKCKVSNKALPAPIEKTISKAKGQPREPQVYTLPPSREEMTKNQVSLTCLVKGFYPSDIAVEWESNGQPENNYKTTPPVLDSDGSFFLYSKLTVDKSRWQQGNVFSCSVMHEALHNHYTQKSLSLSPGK
light: DIQMTQSPSSLSASVGDRVTITCRASQLVSSAVAWYQQKPGKAPKLLIYWASARHTGVPSRFSGSGSGTDFTLTISSLQPEDFATYYCQQHYKTPFTFGQGTKLEIKGGSGGGGSGQAVVTQEPSLTVSPGGTVTLTCGSSTGAVTIDHYPYWFQQKPGQAPRTLISDTDDKHSWTPARFSGSLLGGKAALTLSGAQPEDEAEYYCLLDYGGSFVFGGGTKLTVLGQPKAAPSVTLFPPSSEELQANKATLVCLISDFYPGAVTVAWKADSSPVKAGVETTTPSKQSNNKYAASSYLSLTPEQWKSHRSYSCQVTHEGSTVEKTVAPTECS
notes: DVD-Ig: outer MAK195-21, inner AE10-6 AM8
B3: in experiment [1], the Kd was 3.6 pM, the koff was 7.9e-06 s⁻¹ and the kon amounted to 2.2e+06 M⁻¹ s⁻¹.

B4: DVD2658 (bispecific antibody, human IgG1, kappa, L234A L235A)
heavy: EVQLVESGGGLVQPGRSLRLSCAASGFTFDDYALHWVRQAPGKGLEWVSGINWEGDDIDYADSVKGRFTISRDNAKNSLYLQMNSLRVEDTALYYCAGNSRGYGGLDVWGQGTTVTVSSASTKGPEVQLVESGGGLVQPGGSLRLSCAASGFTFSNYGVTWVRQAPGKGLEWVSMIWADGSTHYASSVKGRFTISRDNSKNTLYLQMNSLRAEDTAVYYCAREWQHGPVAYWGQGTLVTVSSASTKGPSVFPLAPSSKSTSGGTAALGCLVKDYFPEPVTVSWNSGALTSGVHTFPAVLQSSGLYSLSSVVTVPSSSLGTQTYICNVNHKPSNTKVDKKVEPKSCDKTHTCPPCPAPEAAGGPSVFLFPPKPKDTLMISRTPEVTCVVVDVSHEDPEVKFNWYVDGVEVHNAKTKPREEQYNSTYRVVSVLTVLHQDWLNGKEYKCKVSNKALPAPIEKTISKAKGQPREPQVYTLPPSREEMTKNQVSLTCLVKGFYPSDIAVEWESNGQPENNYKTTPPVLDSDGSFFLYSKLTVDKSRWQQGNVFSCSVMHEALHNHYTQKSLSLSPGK
light: QSVLTQPPSASGTPGQRVTISCSGSSSNIGRNTVNWYQQLPGTAPKLLIYSNNQRPSGVPDRFSGSKSGTSASLAISGLQSEDEADYYCAAWDDNLESYVFGGGTKLTVLGQPKAAPDIQMTQSPSSLSASVGDRVTITCRASQLVSSAVAWYQQKPGKAPKLLIYWASARHTGVPSRFSGSGSGTDFTLTISSLQPEDFATYYCQQHYKTPFTFGQGTKLEIKRTVAAPSVFIFPPSDEQLKSGTASVVCLLNNFYPREAKVQWKVDNALQSGNSQESVTEQDSKDSTYSLSSTLTLSKADYEKHKVYACEVTHQGLSSPVTKSFNRGEC
notes: DVD-Ig: outer MSL10-AM1.2, inner AB436
Regarding B4, in experiment [1], the Kd is under 3.7 pM, the koff is under 1e-06 s⁻¹ and the kon worked out at 270000 M⁻¹ s⁻¹. Also, in experiment [2], the dissociation constant (Kd) turned out to be 61 pM, the koff worked out at 3e-05 s⁻¹ and the kon was 500000 M⁻¹ s⁻¹.

B5: MAK195-21-SS-AE10-6 AM7 (bispecific antibody, human IgG1, lambda, L234A L235A)
heavy: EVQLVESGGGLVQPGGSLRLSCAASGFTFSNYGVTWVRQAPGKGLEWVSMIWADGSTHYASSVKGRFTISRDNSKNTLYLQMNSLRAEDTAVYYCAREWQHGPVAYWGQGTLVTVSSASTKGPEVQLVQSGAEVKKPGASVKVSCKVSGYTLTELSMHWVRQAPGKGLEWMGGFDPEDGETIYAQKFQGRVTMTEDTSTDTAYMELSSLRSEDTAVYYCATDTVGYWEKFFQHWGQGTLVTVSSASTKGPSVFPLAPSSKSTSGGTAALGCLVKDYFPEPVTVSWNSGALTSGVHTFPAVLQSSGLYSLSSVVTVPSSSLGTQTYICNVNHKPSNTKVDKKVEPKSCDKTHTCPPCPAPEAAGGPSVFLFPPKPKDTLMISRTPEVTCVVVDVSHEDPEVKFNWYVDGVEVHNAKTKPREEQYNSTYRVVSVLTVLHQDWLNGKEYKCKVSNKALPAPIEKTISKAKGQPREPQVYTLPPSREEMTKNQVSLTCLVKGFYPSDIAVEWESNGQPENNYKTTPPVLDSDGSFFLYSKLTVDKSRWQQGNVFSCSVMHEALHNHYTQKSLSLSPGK
light: DIQMTQSPSSLSASVGDRVTITCRASQLVSSAVAWYQQKPGKAPKLLIYWASARHTGVPSRFSGSGSGTDFTLTISSLQPEDFATYYCQQHYKTPFTFGQGTKLEIKRTVAAPQAVVTQEPSLTVSPGGTVTLTCGSSTGTVTIDHYPYWFQQKPGQAPRTLISDTDDKHSWTPARFSGSLLGGKAALTLSGAQPEDEAEYYCLLDYGGRFVFGGGTKLTVLGQPKAAPSVTLFPPSSEELQANKATLVCLISDFYPGAVTVAWKADSSPVKAGVETTTPSKQSNNKYAASSYLSLTPEQWKSHRSYSCQVTHEGSTVEKTVAPTECS
notes: as for B2
In the case of B5, in experiment [1], the Kd is under 1.5 pM, the koff was under 1e-06 s⁻¹ and the kon was determined as 680000 M⁻¹ s⁻¹.

B6: AE10-6-AM3 (antibody, V domains shown)
VH: EVQLVQSGAEVKKPGASVKVSCKVSGYTLTELSMHWVRQAPGKGLEWMGGFDPEDGETIYAQKFQGRVTMTEDTSTDTAYMELSSLRSEDTAVYYCATDSAGYWYKFFQHWGQGTLVTVSS
VL: QAVVTQEPSLTVSPGGTVTLTCGSSTGAVTIDHYPYWFQQKPGQAPRTLISDTDDKHSWTPARFSGSLLGGKAALTLSGAQPEDEAEYYCLLDYGGTFVFGGGTKLTVL
notes: converted into IgG
Consider B6, for which the Kd worked out at 0.54 pM in experiment [1], 0.24 pM in experiment [2], 10 pM in experiment [3] and 5.5 pM in experiment [4]. Further, the koff in experiment [1] was found to be 3.8e-06 s⁻¹; in experiment [2], 1.6e-06 s⁻¹; in experiment [3], 1.9e-05 s⁻¹; in experiment [4], 5.5e-05 s⁻¹. The kon in experiment [1] worked out at 7e+06 M⁻¹ s⁻¹; in experiment [2], 6.9e+06 M⁻¹ s⁻¹; in experiment [3] it was 1.9e+06 M⁻¹ s⁻¹; in experiment [4], 1e+07 M⁻¹ s⁻¹.

B7: AE10-6-AM5 (antibody, V domains shown)
VH: EVQLVQSGAEVKKPGASVKVSCKVSGYTLSELSMHWVRQAPGKGLEWMGGFDPEGGETIYAQKFQGRVTMTEDTSTDTAYMELSSLRSEDTAVYYCATDAGGYWYKFFQHWGQGTLVTVSS
VL: QAVVTQEPSLTVSPGGTVTLTCGSSTGTVTIDHYPYWFQQKPGQAPRTLISDTDDKHSWTPARFSGSLLGGKAALTLSGAQPEDEAEYYCLLFYGGTVVFGGGTKLTVL
notes: converted into IgG
For B7, the Kd in experiment [1] was 3 pM; in experiment [2] it was 1.5 pM; in experiment [3], 56 pM; in experiment [4] it was 16 pM. Besides, the koff turned out to be 1.3e-05 s⁻¹ in experiment [1], 7.6e-06 s⁻¹ in experiment [2], 7.5e-05 s⁻¹ in experiment [3] and 0.00011 s⁻¹ in experiment [4]. The kon in experiment [1] is 4.3e+06 M⁻¹ s⁻¹; in experiment [2] it was 5.2e+06 M⁻¹ s⁻¹; in experiment [3], 1.3e+06 M⁻¹ s⁻¹; in experiment [4], 7e+06 M⁻¹ s⁻¹.

B8: AE10-6-AM2 (antibody, V domains shown)
VH: EVQLVQSGAEVKKPGASVKVSCKVSGYTLTELSMHWVRQAPGKGLEWMGGFDPEAGETIYAQKFQGRVTMTEDTSTDTAYMELSSLRSEDTAVYYCATDGELYWYKFFQHWGQGTLVTVSS
VL: QAVVTQEPSLTVSPGGTVTLTCGSSTGAVTIWHYPYWFQQKPGQAPRTLISDTNDKHSWTPARFSGSLLGGKAALTLSGAQPEDEAEYYCLLDYGGSFVFGGGTKLTVL
notes: converted into IgG; also called rHC + LC S4 clone 102
As to B8, the Kd in experiment [1] worked out at 8.1 pM; in experiment [2], 7.1 pM; in experiment [3], 120 pM; in experiment [4], 94 pM. The koff in experiment [1] worked out at 2.7e-05 s⁻¹; in experiment [2], 2.6e-05 s⁻¹; in experiment [3], 0.00088 s⁻¹; in experiment [4], 0.002 s⁻¹. For the same molecule, the kon in experiment [1] stood at 3.4e+06 M⁻¹ s⁻¹; in experiment [2] it was 3.6e+06 M⁻¹ s⁻¹; in experiment [3], 7.6e+06 M⁻¹ s⁻¹; in experiment [4], 2.1e+07 M⁻¹ s⁻¹.

B9: DVD2657 (bispecific antibody, human IgG1, kappa, L234A L235A)
heavy: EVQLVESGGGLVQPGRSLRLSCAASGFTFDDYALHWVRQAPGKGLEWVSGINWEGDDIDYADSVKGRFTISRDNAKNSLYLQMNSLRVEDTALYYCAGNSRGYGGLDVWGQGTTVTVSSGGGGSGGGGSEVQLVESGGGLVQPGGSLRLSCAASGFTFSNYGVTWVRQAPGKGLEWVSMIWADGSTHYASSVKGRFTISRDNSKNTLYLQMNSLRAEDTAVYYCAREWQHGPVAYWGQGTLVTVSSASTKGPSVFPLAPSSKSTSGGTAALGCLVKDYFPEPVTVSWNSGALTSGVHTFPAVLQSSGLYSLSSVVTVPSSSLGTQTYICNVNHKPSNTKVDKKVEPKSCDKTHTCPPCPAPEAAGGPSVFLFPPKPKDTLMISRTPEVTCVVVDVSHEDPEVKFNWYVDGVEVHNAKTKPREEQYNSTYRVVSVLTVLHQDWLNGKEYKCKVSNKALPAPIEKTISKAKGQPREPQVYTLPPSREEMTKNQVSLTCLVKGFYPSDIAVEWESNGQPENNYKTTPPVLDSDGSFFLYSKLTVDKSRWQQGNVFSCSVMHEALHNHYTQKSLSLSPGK
light: QSVLTQPPSASGTPGQRVTISCSGSSSNIGRNTVNWYQQLPGTAPKLLIYSNNQRPSGVPDRFSGSKSGTSASLAISGLQSEDEADYYCAAWDDNLESYVFGGGTKLTVLGGGSGGGGSGDIQMTQSPSSLSASVGDRVTITCRASQLVSSAVAWYQQKPGKAPKLLIYWASARHTGVPSRFSGSGSGTDFTLTISSLQPEDFATYYCQQHYKTPFTFGQGTKLEIKRTVAAPSVFIFPPSDEQLKSGTASVVCLLNNFYPREAKVQWKVDNALQSGNSQESVTEQDSKDSTYSLSSTLTLSKADYEKHKVYACEVTHQGLSSPVTKSFNRGEC
notes: as for B4
Consider B9, for which, in experiment [1], the Kd was 17 pM, the koff was 4.9e-06 s⁻¹ and the kon amounted to 280000 M⁻¹ s⁻¹. Moreover, in experiment [2], the Kd stood at 130 pM, the koff is 5e-05 s⁻¹ and the kon is 390000 M⁻¹ s⁻¹.
